In patent US20250002588A1 (DIAGONAL THERAPEUTICS, published 2025):
Substitutions are numbered along the chain they refer to.

B1: DGL274 (bispecific antibody)
chain 1: EVQLLESGGGLVQPGGSLRLSCAASGFTFSIYAMSWVRQAPGKGLEWVSAISGSGGSTYYADSVKGRFTISRDNSKNTLYLQMNSLRAEDTAVYYCARDFDYWGQGTLVTVTSSGGGGSGGGGSGGGGSQSVLTQPPSASGTPGQRVTISCSGSSSNIGSNYVYWYQQLPGTAPKLLIYGNINRPSGVPDRFSGSKSGTSASLAISGLRSEDEADYYCAAWDDSLNGRVFGGGTKLTVLPLAPCPPCPAPEAAGAPSVFLFPPKPKDTLMISRTPEVTCVVVDVSHEDPEVKFNWYVDGVEVHNAKTKPREEQYNSTYRVVSVLTVLHQDWLNGKEYKCKVSNKALPAPIEKTISKAKGQPREPQVYTLPPCRDELTKNQVSLWCLVKGFYPSDIAVEWESNGQPENNYKTTPPVLDSDGSFFLYSKLTVDKSRWQQGNVFSCSVMHEALHNHYTQKSLSLSPGEPEA
chain 2: EVQLLESGGGLVQPGGSLRLSCAASGFTFSNAWMNWVRQAPGKGLEWVSSISSSSSYIYYADSVKGRFTISRDNSKNTLYLQMNSLRAEDTAVYYCARAVAAGGMFWGLDQWGQGTLVTVTSSGGGGSGGGGSGGGGSQSVLTQPPSASGTPGQRVTISCSGSRSNIGSNSVHWYQQLPGTAPKLLIYGNSNRPSGVPDRFSGSKSGTSASLAISGLRSEDEADYYCQSYDSSLNDHVVFGGGTKLTVLPLAPCPPCPAPEAAGAPSVFLFPPKPKDTLMISRTPEVTCVVVDVSHEDPEVKFNWYVDGVEVHNAKTKPREEQYNSTYRVVSVLTVLHQDWLNGKEYKCKVSNKALPAPIEKTISKAKGQPREPQVCTLPPSRDELTKNQVSLSCAVKGFYPSDIAVEWESNGQPENNYKTTPPVLDSDGSFFLVSKLTVDKSRWQQGNVFSCSVMHEALHNHYTQKSLSLSPGWSHPQFEK
B2: DGL273 (bispecific antibody)
chain 1: EVQLLESGGGLVQPGGSLRLSCAASGFTFSIYAMSWVRQAPGKGLEWVSAISGSGGSTYYADSVKGRFTISRDNSKNTLYLQMNSLRAEDTAVYYCARDFDYWGQGTLVTVTSSGGGGSGGGGSGGGGSQSVLTQPPSASGTPGQRVTISCSGSSSNIGSNYVYWYQQLPGTAPKLLIYGNINRPSGVPDRFSGSKSGTSASLAISGLRSEDEADYYCAAWDDSLNGRVFGGGTKLTVLCPPCPAPEAAGAPSVFLFPPKPKDTLMISRTPEVTCVVVDVSHEDPEVKFNWYVDGVEVHNAKTKPREEQYNSTYRVVSVLTVLHQDWLNGKEYKCKVSNKALPAPIEKTISKAKGQPREPQVYTLPPCRDELTKNQVSLWCLVKGFYPSDIAVEWESNGQPENNYKTTPPVLDSDGSFFLYSKLTVDKSRWQQGNVFSCSVMHEALHNHYTQKSLSLSPGEPEA
chain 2: EVQLLESGGGLVQPGGSLRLSCAASGFTFSNAWMNWVRQAPGKGLEWVSSISSSSSYIYYADSVKGRFTISRDNSKNTLYLQMNSLRAEDTAVYYCARAVAAGGMFWGLDQWGQGTLVTVTSSGGGGSGGGGSGGGGSQSVLTQPPSASGTPGQRVTISCSGSRSNIGSNSVHWYQQLPGTAPKLLIYGNSNRPSGVPDRFSGSKSGTSASLAISGLRSEDEADYYCQSYDSSLNDHVVFGGGTKLTVLCPPCPAPEAAGAPSVFLFPPKPKDTLMISRTPEVTCVVVDVSHEDPEVKFNWYVDGVEVHNAKTKPREEQYNSTYRVVSVLTVLHQDWLNGKEYKCKVSNKALPAPIEKTISKAKGQPREPQVCTLPPSRDELTKNQVSLSCAVKGFYPSDIAVEWESNGQPENNYKTTPPVLDSDGSFFLVSKLTVDKSRWQQGNVFSCSVMHEALHNHYTQKSLSLSPGWSHPQFEK
B3: DGL269 (bispecific antibody)
chain 1: EVQLLESGGGLVQPGGSLRLSCAASGFTFSNAWMNWVRQAPGKGLEWVSSISSSSSYIYYADSVKGRFTISRDNSKNTLYLQMNSLRAEDTAVYYCARAVAAGGMFWGLDQWGQGTLVTVTSSGGGGSGGGGSGGGGSQSVLTQPPSASGTPGQRVTISCSGSRSNIGSNSVHWYQQLPGTAPKLLIYGNSNRPSGVPDRFSGSKSGTSASLAISGLRSEDEADYYCQSYDSSLNDHVVFGGGTKLTVLGGGGSGGGGSGGGGSGVECPPCPAPPVAGPSVFLFPPKPKDTLMISRTPEVTCVVVDVSHEDPEVQFNWYVDGVEVHNAKTKPREEQFNSTFRVVSVLTVVHQDWLNGKEYKCKVSNKGLPAPIEKTISKTKGQPREPQVYTLPPCREEMTKNQVSLWCLVKGFYPSDIAVEWESNGQPENNYKTTPPMLDSDGSFFLYSKLTVDKSRWQQGNVFSCSVMHEALHNHYTQKSLSLSPG
chain 2: B3 chain 1 with Y390C, C395S, W407S, L409A, Y448V
B4: DGL275 (bispecific antibody)
chain 1: not shown
chain 2: EVQLLESGGGLVQPGGSLRLSCAASGFTFSDYYMTWIRQAPGKGLEWVSSISGGSTYYADSRKGRFTISRDNSENTLYLQMNSLRAEDTAVYYCARDFGVAGWFGQYGMDVWGQGTLVTVSSGGGGSGGGGSGGGGSQSVLTQPPSASGTPGQRVTISCTGSSSNIGAGYDVHWYQQLPGTAPKLLIYRSNQRPSGVPDRFSGSKSGTSASLAISGLRSEDEADYYCSSYAGNYNLVFGGGTKLTVLDKTHTCPPCPAPEAAGAPSVFLFPPKPKDTLMISRTPEVTCVVVDVSHEDPEVKFNWYVDGVEVHNAKTKPREEQYNSTYRVVSVLTVLHQDWLNGKEYKCKVSNKALPAPIEKTISKAKGQPREPQVCTLPPSRDELTKNQVSLSCAVKGFYPSDIAVEWESNGQPENNYKTTPPVLDSDGSFFLVSKLTVDKSRWQQGNVFSCSVMHEALHNHYTQKSLSLSPGWSHPQFEK
B5: DGL271 (bispecific antibody)
chain 1: EVQLLESGGGLVQPGGSLRLSCAASGFTFSDYYMTWIRQAPGKGLEWVSSISGGSTYYADSRKGRFTISRDNSENTLYLQMNSLRAEDTAVYYCARDFGVAGWFGQYGMDVWGQGTLVTVSSGGGGSGGGGSGGGGSQSVLTQPPSASGTPGQRVTISCTGSSSNIGAGYDVHWYQQLPGTAPKLLIYRSNQRPSGVPDRFSGSKSGTSASLAISGLRSEDEADYYCSSYAGNYNLVFGGGTKLTVLGGGGSGGGGSGGGGSGVECPPCPAPPVAGPSVFLFPPKPKDTLMISRTPEVTCVVVDVSHEDPEVQFNWYVDGVEVHNAKTKPREEQFNSTFRVVSVLTVVHQDWLNGKEYKCKVSNKGLPAPIEKTISKTKGQPREPQVYTLPPCREEMTKNQVSLWCLVKGFYPSDIAVEWESNGQPENNYKTTPPMLDSDGSFFLYSKLTVDKSRWQQGNVFSCSVMHEALHNHYTQKSLSLSPG
chain 2: B5 chain 1 with Y388C, C393S, W405S, L407A, Y446V
B6: DGL270 (bispecific antibody)
chain 1: EVQLLESGGGLVQPGGSLRLSCAASGFTFSSYAMSWVRQAPGKGLEWVANINQDGSEKNYVDSMRGRFTISRDNSKNTLYLQMNSLRAEDTAVYYCAREFDYWGQGTLVTVTSSGGGGSGGGGSGGGGSQSVLAQPPSASGTPGQRVTISCSGSSSNIGSNYVYWYQQLPGTAPKLLIYGNNKRPSGVPDRFSGSKSGTSASLAISGLRSEDEADYYCAAWDDSLNGRVFGGGTKLTVLGGGGSGGGGSGGGGSGVECPPCPAPPVAGPSVFLFPPKPKDTLMISRTPEVTCVVVDVSHEDPEVQFNWYVDGVEVHNAKTKPREEQFNSTFRVVSVLTVVHQDWLNGKEYKCKVSNKGLPAPIEKTISKTKGQPREPQVYTLPPCREEMTKNQVSLWCLVKGFYPSDIAVEWESNGQPENNYKTTPPMLDSDGSFFLYSKLTVDKSRWQQGNVFSCSVMHEALHNHYTQKSLSLSPG
chain 2: B6 chain 1 with Y380C, C385S, W397S, L399A, Y438V

biological target: ALK-1/BMPR-2 receptor pair of the PathHunter U2Os dimerization cells (DiscoverX 93-0962C3) (UniProt P37023 22-503; Q13873 27-1038); experiment: cell-based or functional assay
Sequence (P37023 22-503, chain 1 of 2): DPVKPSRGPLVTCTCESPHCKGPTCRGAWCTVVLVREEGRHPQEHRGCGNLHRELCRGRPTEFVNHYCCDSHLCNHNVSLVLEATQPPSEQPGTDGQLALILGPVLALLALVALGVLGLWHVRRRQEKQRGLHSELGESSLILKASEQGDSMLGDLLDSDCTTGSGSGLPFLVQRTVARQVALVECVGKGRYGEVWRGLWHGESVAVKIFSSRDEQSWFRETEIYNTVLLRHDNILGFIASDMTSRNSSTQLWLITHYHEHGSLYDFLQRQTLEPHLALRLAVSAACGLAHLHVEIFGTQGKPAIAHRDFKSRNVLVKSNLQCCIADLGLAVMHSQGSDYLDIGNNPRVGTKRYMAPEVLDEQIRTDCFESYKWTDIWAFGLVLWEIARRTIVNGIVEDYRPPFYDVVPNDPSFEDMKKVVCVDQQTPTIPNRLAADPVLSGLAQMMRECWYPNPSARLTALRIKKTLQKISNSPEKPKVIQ
Sequence (Q13873 27-1038, chain 2 of 2): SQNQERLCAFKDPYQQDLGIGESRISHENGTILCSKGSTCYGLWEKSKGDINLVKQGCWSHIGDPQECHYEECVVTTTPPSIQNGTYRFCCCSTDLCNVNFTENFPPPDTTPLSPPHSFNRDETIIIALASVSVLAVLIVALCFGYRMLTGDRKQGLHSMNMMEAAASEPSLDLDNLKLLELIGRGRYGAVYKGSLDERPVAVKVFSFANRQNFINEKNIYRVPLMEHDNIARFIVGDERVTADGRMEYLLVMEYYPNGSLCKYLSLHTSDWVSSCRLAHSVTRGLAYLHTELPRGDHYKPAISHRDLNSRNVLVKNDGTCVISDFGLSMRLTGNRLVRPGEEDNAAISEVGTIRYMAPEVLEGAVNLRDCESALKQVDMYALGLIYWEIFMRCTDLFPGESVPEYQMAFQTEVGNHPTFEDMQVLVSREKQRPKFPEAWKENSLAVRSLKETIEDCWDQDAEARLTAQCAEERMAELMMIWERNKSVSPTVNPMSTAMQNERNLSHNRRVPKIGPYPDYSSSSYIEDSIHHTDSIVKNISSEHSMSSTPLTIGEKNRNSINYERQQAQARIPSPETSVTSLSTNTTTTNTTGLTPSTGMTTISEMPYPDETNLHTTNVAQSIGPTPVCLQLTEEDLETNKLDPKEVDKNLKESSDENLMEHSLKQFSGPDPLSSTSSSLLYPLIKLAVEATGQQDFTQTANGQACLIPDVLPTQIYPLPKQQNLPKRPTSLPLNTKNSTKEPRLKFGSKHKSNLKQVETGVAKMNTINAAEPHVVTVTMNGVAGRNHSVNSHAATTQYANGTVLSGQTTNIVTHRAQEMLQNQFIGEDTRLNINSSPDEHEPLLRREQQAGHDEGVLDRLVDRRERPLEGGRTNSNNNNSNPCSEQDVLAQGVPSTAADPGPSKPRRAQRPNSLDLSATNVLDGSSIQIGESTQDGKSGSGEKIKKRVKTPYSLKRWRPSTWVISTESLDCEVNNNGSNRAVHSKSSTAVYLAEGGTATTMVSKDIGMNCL

Row | % Emax BMP9 | EC50 | Emax (RLU) | Binder
1 | 47% | 1.7 nM | 1.25e+06 RLU | B1
2 | 46% | 4.2 nM | 1.22e+06 RLU | B2
3 | 0% |  | -8300 RLU | B3
4 | 48% | 0.9 nM | 1.28e+06 RLU | B4
5 | 2% |  | 55900 RLU | B5
6 | 0% |  | 9200 RLU | B6
